Reference: patent US11834499 (University of California, dated 2023)
Substitutions are numbered along the chain they refer to.

T1: mouse CLDN18.2 (mouse, UniProt P56857 10-264, Expressed on HEK293T cells as a fusion to GFP. The GFP is left out of the letters.)
T1 construct: also called mouse CLDN18.2 fused to GFP; not shown: The GFP fused to mouse CLDN18.2, and any linker to it
T1 chain: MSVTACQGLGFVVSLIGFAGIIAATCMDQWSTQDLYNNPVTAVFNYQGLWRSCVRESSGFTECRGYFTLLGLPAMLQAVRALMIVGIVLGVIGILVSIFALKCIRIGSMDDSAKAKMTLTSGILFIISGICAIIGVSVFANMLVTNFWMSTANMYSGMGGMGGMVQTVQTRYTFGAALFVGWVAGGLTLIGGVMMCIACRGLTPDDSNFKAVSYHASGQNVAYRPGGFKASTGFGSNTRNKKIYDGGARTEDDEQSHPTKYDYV

B1: 02-0358-h3 (antibody, V domains shown)
VH: EVQLVESGGGLVQPGGSLRLSCAVSGFTFSSFGMHWVRQAPGKGLEWVAYISSGTTNIYYADSVKGRFTVSRDNAKNSLYLQMNSLRAEDTAVYYCVRSGYYGNSLDYWGQGTLVTVSS
VL: DIVMTQSPDSLAVSLGERVTMNCKSSQSLFNSGNQRNYLTWYQQKPGQPPKLLIYWASTRESGVPDRFSGSGSGTDFTLTISSVQAEDVAVYYCQNVYIYPLTFGQGTKLEIK
notes: Humanized IgG
B2: HuAb307-3 (antibody, V domains shown)
VH: EVQLLESGGGLVQPGGSLRLSCAASGFTFSSYTMSWVRQAPGKGLEWVATIIIGGSYTYYADSVKGRFTISRDNSKNTLYLQMNSLRAEDTAVYYCTRLVKGNAMDYWGQGTLVTVSS
VL: B1 VL with F30L, R36K, T40S, I54F, V97D, I99S, L102F
notes: Humanized, expressed as full-length IgG
B3: 02-0307-5h antibody (antibody, V domains shown)
VH: B2 VH
VL: B1 VL with F30L, N31Q, R36K, T40S, I54F, V97D, I99S, L102F
notes: also called 02-h1F06-5h
B4: 02-0307-7h antibody (antibody, V domains shown)
VH: B2 VH with N103Q
VL: B1 VL with F30L, R36K, T40S, I54F, V97D, I99S, L102F
notes: also called 02-h1F06-7h
B5: 02-0307-8h antibody (antibody, V domains shown)
VH: B2 VH with N103Q
VL: B1 VL with F30L, N31Q, R36K, T40S, I54F, V97D, I99S, L102F
notes: also called 02-h1F06-8h
B6: 02-0307-9h antibody (antibody, V domains shown)
VH: B2 VH with N103Q
VL: B1 VL with F30L, N31S, R36K, T40S, I54F, V97D, I99S, L102F
notes: also called 02-h1F06-9h
B7: 02-0307-10h antibody (antibody, V domains shown)
VH: B2 VH with N103S
VL: B1 VL with F30L, R36K, T40S, I54F, V97D, I99S, L102F
notes: also called 02-h1F06-10h
B8: 02-0307-11h antibody (antibody, V domains shown)
VH: B2 VH with N103S
VL: B1 VL with F30L, N31Q, R36K, T40S, I54F, V97D, I99S, L102F
notes: also called 02-h1F06-11h
B9: 02-0307-12h antibody (antibody, V domains shown)
VH: B2 VH with N103S
VL: B1 VL with F30L, N31S, R36K, T40S, I54F, V97D, I99S, L102F
notes: also called 02-h1F06-12h
B10: 02-0307-h6 (antibody, V domains shown)
VH: B2 VH
VL: B1 VL with F30L, N31S, R36K, T40S, I54F, V97D, I99S, L102F
notes: Humanized IgG (detected with anti-human IgG Fc)
B11: 02-0358-4h antibody (antibody, V domains shown)
VH: B1 VH
VL: B1 VL with N31Q
B12: 02-0358-6h antibody (antibody, V domains shown)
VH: B1 VH with N104Q
VL: B1 VL
B13: 02-0358-7h antibody (antibody, V domains shown)
VH: B1 VH with N104S
VL: B1 VL
B14: 02-0358-8h antibody (antibody, V domains shown)
VH: B1 VH with N104Q
VL: B1 VL with N31Q
B15: 02-0358-9h antibody (antibody, V domains shown)
VH: B1 VH with N104Q
VL: B1 VL with N31S
B16: 02-0358-10h antibody (antibody, V domains shown)
VH: B1 VH with N104S
VL: B1 VL with N31Q
B17: 02-0358-11h antibody (antibody, V domains shown)
VH: B1 VH with N104S
VL: B1 VL with N31S
B18: Ab 376 (antibody, V domains shown)
VH: DVKLVESGGGLVKPGGSLKLSCAASGFTFSSYTMSWVRQTPEKRLYWVATISSGVSYTYYPDSVKGRFTISRDNAKNTLYLQMSSLKSEDTAMYYCTRLTKGNAMDYWGQGTSVTVSS
VL: DIVMTQSPSSLTVTAGEKVTMSCKSSQSLLNSGNQKNYLTWYQQKPGQPPKLLIYWASTRESGVPDRFTGSGSGTGFTLTISSVQAEDLAVYYCQNDYSYPFTFGAGTKLELK
B19: Ab 384 (antibody, V domains shown)
VH: QVQLQQSGAELARPGASVKLSCKASDYTFTSYVISWVKQRTGQGLEWIGEIYPRNGNTYYNEKFKGKATLTADKSSSTAYMELRSLTSEDSAVYFCARSYYGNSFAYWGQGTLVTVSA
VL: B18 VL with K45R, G76D, Y93C, D97N, S99Y, A106G, E111G, L112I
B20: Ab 400 (antibody, V domains shown)
VH: QVQLKESGPGLVAPSQSLSITCTVSGFSLNSYGVSWVRQPPGKGLEWLGVIWGDGSTNYHSALKSRLNINKDKSKSQVFLKLNSLQTDDTATYYCARPTRGNAMDYWGQGTSVTVSS
VL: DVVMTQSPSSLTVTAGEKVTMNCKSSQSLLNSGNQRSYLTWYQQKPGQPPKLLIYWASTRESGAPDRFTGSGSGADFTLTISSVQAEDLAIYYCQNNYNYPFTFGSGTKLEIK
B21: Ab 392 (antibody, V domains shown)
VH: EVQLQQSGPELVKPGASVKMSCKASGFTFTSYVMHWVKQKSGQGLEWIGYINPYNDDIKYNAKFEDKATLTSDRSSSTAYMELSSLTSDDSAVYFCTRGDYWGQGTTLTVSS
VL: B18 VL with A15T, S22D, P46S, T59I, E61K, G76D, Q95L, Y100F, F102L
B22: Reference antibody 2 (Benchmark 2-163E12) (antibody, V domains shown)
VH: QVQLQQSGAELARPGASVKLSCKASGYTFTDYYINWVKQRTGQGLEWIGEIYPGSGNTYYNEKFKGKATLTADKSSSTAYMQLSSLTSEDSAVYFCARSYGAFDYWGQGTTLTVSS
VL: B18 VL with G76D, F102L

These binders were tested against T2, human Claudin-18.2 (CLDN18.2) (human) (assay: KinExA, cell-based; HUPT4, Versene; Error% 3.73; 95% CI 0.87nM - 3.23nM; equilibrium curves 1nM, 20nM).
T2 construct: On cells: fused to GFP in engineered HEK293T cells (clone C12), endogenous in HUPT4 and SNU601 cells; also called human CLDN18.2
Experimental: (§1) For each KD measurement, in general, at least two antibody concentration curves were prepared using the same batch of cells (same passage) to avoid changes in expression level from passage to passage. Briefly, either HEK293T CLDN18.2-mGFP C12 cells (engineered overexpression cell line) or HUPT4 cells (native positive cell line) were detached using Versene. Cells were then equilibrated in different concentrations of the antibody solutions, respectively, in 2% FBS/DMEM or 2% FBS/RPMI at 4° C. overnight. Cells concentrations started with 1.8 ×10^7 cells/ml and 2-fold serial dilution was performed to 10 points. In addition, antibody solution only (Signal 100%) and nonspecific binding (NSB) buffer only were included in each curve. Next day, spin the cells at 1500 rpm for 10 mins and saved the supernatant for measurement. […] The KD and antigen expression level were calculated using two antibody curves analyzed by n-curve analysis.
In the case of B1, the Kd is reported as 1.7 nM.

What follows are binders tested against T2, human Claudin-18.2 (CLDN18.2) (assay: KinExA, cell-based; HUPT4, Versene; Error% 3.57; 95% CI 0.31nM - 1.34nM; equilibrium curves 1nM, 20nM).
Experimental: as §1
B2 showed a Kd of 0.69 nM.

These binders were tested against T2, human Claudin-18.2 (CLDN18.2) (assay: flow cytometry; HUPT4 over M202 [Cont.]).
Experimental: (§2) The samples were then measured by Intellicyt® iQue Advanced Flow Cytometry Platform.
B3 was tested, and the ratio native was 121. B4 showed a ratio native of 22.5. With B5 the ratio native was 12.2. B6 showed a ratio native of 45.1. In the case of B7, the ratio native is reported as 6.42. B8 was tested, and the ratio native was 1.52. Work on B9 yielded a ratio native of 9.89. For B10, the ratio native was 137. Binder B11 has a ratio native of 94. B12 gave a ratio native of 79.9. Work on B13 yielded a ratio native of 94.1. With B14 the ratio native was 57.9. B15 was tested, and the ratio native was 93.4. For B16, the ratio native was 54.1. B17 was tested, and the ratio native was 88.8.

Molecular target: T1, mouse CLDN18.2
Assay: FACS dose curve, AF647-labelled IgG on HEK293T mouse CLDN18.2 MP cells
B18: no binding (tested: 0.32 nM to 1000 nM). B19: no binding (tested: 0.32 nM to 1000 nM). B20: no binding (tested: 0.32 nM to 1000 nM). B21: no binding (tested: 0.32 nM to 1000 nM). B22: no binding (tested: 0.32 nM to 1000 nM).

These binders were tested against T2, human Claudin-18.2 (CLDN18.2) (assay: FACS, 1.5 ug antibody, HUPT4 cells (endogenous CLDN18.2)).
Experimental: FACS assays were carried out to determine relative antigen binding strengths of the humanized antibodies (at either 1.5 μg or 0.3 μg) for binding to CLDN18.2 as expressed by the indicated cancer cell lines.
With B2 the “FACS signal (relative antigen binding strength)” value was 34000.

Each binder was assayed against T2, human Claudin-18.2 (CLDN18.2) (assay: KinExA, cell-based; HEK293T-CLDN18.2-mGFP C12, Versene; Error% 1.84; 95% CI 2.03nM - 4.44nM; equilibrium curves 500pM, 2nM, 10nM).
Experimental: as §1
In the case of B1, the Kd is reported as 3 nM.

These binders were tested against T2, human Claudin-18.2 (CLDN18.2) (assay: KinExA, cell-based; HUPT4, Versene; Error% 2.72; 95% CI 0.58nM - 1.43nM; equilibrium curves 1nM, 20nM).
Experimental: as §1
B10 gave a Kd of 0.93 nM.

These binders were tested against T2, human Claudin-18.2 (CLDN18.2) (assay: KinExA, cell-based; HEK293T-CLDN18.2-mGFP C12, Versene; Error% 2.35; 95% CI 2.12nM - 6.47nM; equilibrium curves 500pM, 2nM, 10nM).
Experimental: as §1
B2 gave a Kd of 3.65 nM.

The binders below were run against T2, human Claudin-18.2 (CLDN18.2) (assay: FACS, 1.5 ug antibody, HEK293T-CLDN18.2 C12 clone cells).
In the case of B2, the “FACS signal (relative antigen binding strength)” value is reported as 151000.

Each binder was assayed against T2, human Claudin-18.2 (CLDN18.2) (assay: KinExA, cell-based; HEK293T-CLDN18.2-mGFP C12, Versene; Error% 7.72; 95% CI 0.18nM - 11.91nM; equilibrium curves 500pM and 10nM).
Experimental: as §1
With B10 the Kd was 1.42 nM.

The binders below were run against T2, human Claudin-18.2 (CLDN18.2) (assay: flow cytometry; HEK293T CLDN18.2 over HEK293T parental [Cont.]).
Experimental: as §2
In the case of B3, the “ratio OE” value is reported as 408. In the case of B4, the “ratio OE” value is reported as 326. With B5 the “ratio OE” value was 166. In the case of B6, the “ratio OE” value is reported as 273. With B7 the “ratio OE” value was 202. B8 was tested, and the “ratio OE” value was 40. With B9 the “ratio OE” value was 183. B10 was tested, and the “ratio OE” value was 482. With B11 the “ratio OE” value was 575. B12 was tested, and the “ratio OE” value was 435. In the case of B13, the “ratio OE” value is reported as 449. In the case of B14, the “ratio OE” value is reported as 229. With B15 the “ratio OE” value was 453. B16 was tested, and the “ratio OE” value was 274. B17 was tested, and the “ratio OE” value was 456.
